Key:
murine CD40 [1] = biological target: T1, murine CD40 (murine, UniProt P27512 20-193, limits assumed); experiment: Octet biolayer interferometry; Loading Sample ID mCD40-his; Full R^2 0.7077
T1 construct: also called mCD40
T1 sequence (looked up): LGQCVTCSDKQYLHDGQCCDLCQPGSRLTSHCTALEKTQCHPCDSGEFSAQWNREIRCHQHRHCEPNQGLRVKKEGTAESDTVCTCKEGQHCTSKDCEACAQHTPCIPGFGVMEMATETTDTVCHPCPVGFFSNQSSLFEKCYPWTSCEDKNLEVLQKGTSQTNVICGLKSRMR

human CD40 [2] = biological target: T2, human CD40 (human, UniProt P25942 21-193); experiment: Octet biolayer interferometry; Loading Sample ID hCD40-his; Full R^2 0.9682
T2 construct: also called hCD40
T2 sequence (P25942 21-193 limits assumed): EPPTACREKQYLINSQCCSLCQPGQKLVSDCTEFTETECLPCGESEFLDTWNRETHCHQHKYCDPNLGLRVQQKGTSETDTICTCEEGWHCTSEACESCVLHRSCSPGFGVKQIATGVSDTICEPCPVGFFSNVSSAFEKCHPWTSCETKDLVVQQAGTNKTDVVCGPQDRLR

human CD40 [3] = biological target: T2, human CD40; experiment: Octet biolayer interferometry; Loading Sample ID hCD40-his; kdis(1/s); Full R^2 0.9682
murine CD40 [4] = biological target: T1, murine CD40; experiment: Octet biolayer interferometry; Loading Sample ID mCD40-his; kdis(1/s); Full R^2 0.7077
[5] = biological target: recombinant mouse CD40-Fc protein (mouse) (UniProt P27512); experiment: ELISA: coat mCD40-Fc, detection anti-mCD40L and an HRP conjugate
murine CD40 [6] = biological target: T1, murine CD40; experiment: Octet biolayer interferometry; Loading Sample ID mCD40-his; Full R^2 0.7890
human CD40 [7] = biological target: T2, human CD40; experiment: Octet biolayer interferometry; Loading Sample ID hCD40-his; kdis(1/s); Full R^2 0.9810
human CD40 [8] = biological target: T2, human CD40; experiment: Octet biolayer interferometry; Loading Sample ID hCD40-his; Full R^2 0.3080
[9] = biological target: murine galectin-9 (murine) (UniProt O08573); experiment: Octet biolayer interferometry; Loading Sample ID mGal9; kdis(1/s); Full R^2 0.9973
murine galectin-9 (murine), sequence (O08573 other isoform, or with tags, fused parts or gaps limits assumed): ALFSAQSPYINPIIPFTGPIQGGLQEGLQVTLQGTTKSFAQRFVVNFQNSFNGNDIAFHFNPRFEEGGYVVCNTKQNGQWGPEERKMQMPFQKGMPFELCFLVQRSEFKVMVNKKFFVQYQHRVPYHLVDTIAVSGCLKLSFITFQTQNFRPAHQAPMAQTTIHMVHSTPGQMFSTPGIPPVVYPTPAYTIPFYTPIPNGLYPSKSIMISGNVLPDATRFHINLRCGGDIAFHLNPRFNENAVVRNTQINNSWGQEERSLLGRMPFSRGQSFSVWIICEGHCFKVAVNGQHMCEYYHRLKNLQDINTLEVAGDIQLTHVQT

[10] = biological target: murine galectin-9 (murine) (UniProt O08573); experiment: Octet biolayer interferometry; Loading Sample ID mGal9; Full R^2 0.9973
human CD40 [11] = biological target: T2, human CD40; experiment: Octet biolayer interferometry; Loading Sample ID hCD40-his; Full R^2 0.9810
[12] = biological target: murine galectin-9 (murine) (UniProt O08573); experiment: Octet biolayer interferometry; Loading Sample ID mGal9; kdis(1/s); Full R^2 0.9866
human CD40 [13] = biological target: T2, human CD40; experiment: Octet biolayer interferometry; Loading Sample ID hCD40-his; kdis(1/s); Full R^2 0.9393
[14] = biological target: murine galectin-9 (murine) (UniProt O08573); experiment: Octet biolayer interferometry; Loading Sample ID mGal9; Full R^2 0.9866
human CD40 [15] = biological target: T2, human CD40; experiment: Octet biolayer interferometry; Loading Sample ID hCD40-his; kdis(1/s); Full R^2 0.3080
human CD40 [16] = biological target: T2, human CD40; experiment: Octet biolayer interferometry; Loading Sample ID hCD40-his; Full R^2 0.9393
murine CD40 [17] = biological target: T1, murine CD40; experiment: Octet biolayer interferometry; Loading Sample ID mCD40-his; Full R^2 0.9955
murine CD40 [18] = biological target: T1, murine CD40; experiment: Octet biolayer interferometry; Loading Sample ID mCD40-his; kdis(1/s); Full R^2 0.9955
human galectin-9 (human) [19] = biological target: human galectin-9 (human) (UniProt O00182); experiment: Octet biolayer interferometry; Loading Sample ID hGal9; Full R^2 0.9934
human galectin-9 (human), sequence (O00182 other isoform, or with tags, fused parts or gaps limits assumed): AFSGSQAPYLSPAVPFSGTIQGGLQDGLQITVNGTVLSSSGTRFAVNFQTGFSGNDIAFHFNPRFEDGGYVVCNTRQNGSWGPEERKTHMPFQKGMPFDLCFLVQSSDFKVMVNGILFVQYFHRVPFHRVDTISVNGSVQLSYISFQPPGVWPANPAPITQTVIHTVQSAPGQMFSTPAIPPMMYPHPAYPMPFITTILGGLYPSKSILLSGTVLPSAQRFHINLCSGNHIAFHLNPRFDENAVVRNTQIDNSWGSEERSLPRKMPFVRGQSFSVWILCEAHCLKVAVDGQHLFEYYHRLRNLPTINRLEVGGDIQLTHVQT

mIgG Fc gamma [20] = experiment: sandwich ELISA: coat mIgG Fc gamma, detection goat anti-mouse Fc (H+L) HRP
murine CD40 [21] = biological target: T1, murine CD40; experiment: Octet biolayer interferometry; Loading Sample ID mCD40-his; kdis(1/s); Full R^2 0.7890
human galectin-9 (human) [22] = biological target: human galectin-9 (human) (UniProt O00182); experiment: Octet biolayer interferometry; Loading Sample ID hGal9; kdis(1/s); Full R^2 0.9934
mIgG Fc gamma [23] = experiment: sandwich ELISA: coat mIgG Fc gamma, detection goat anti-mouse Fc (H+L) HRP; standard: mouse whole IgG
murine CD40 [24] = biological target: T1, murine CD40; experiment: Octet biolayer interferometry; Loading Sample ID mCD40-his; kdis(1/s); Full R^2 0.9077
murine CD40 [25] = biological target: T1, murine CD40; experiment: Octet biolayer interferometry; Loading Sample ID mCD40-his; KD and kdis cells blank; Full R^2 0.6015
human CD40 [26] = biological target: T2, human CD40; experiment: Octet biolayer interferometry; Loading Sample ID hCD40-his; Full R^2 0.5111
murine CD40 [27] = biological target: T1, murine CD40; experiment: Octet biolayer interferometry; Loading Sample ID mCD40-his; Full R^2 0.9077
human CD40 [28] = biological target: T2, human CD40; experiment: Octet biolayer interferometry; Loading Sample ID hCD40-his; kdis(1/s); Full R^2 0.5111

hCD40L-Fc (Fc fusion)
Kd (murine CD40 [1]): 10.6 nM | kon (murine CD40 [1]): 229000 M⁻¹ s⁻¹ | Kd (human CD40 [2]): 6.18 nM | kon (human CD40 [2]): 120000 M⁻¹ s⁻¹ | koff (human CD40 [3]): 0.000734 s⁻¹ | koff (murine CD40 [4]): 0.00241 s⁻¹

mTIM-3-Fc-CD40L chimeric protein (from UniProt Q8VIM0 20-193; P27548 47-260) (Fc fusion)
EC50 (read off the curve) [5]: 10 nM | Kd (murine CD40 [6]): 29.9 nM | kon (murine CD40 [6]): 79200 M⁻¹ s⁻¹ | koff (human CD40 [7]): 0.000103 s⁻¹ | Kd (human CD40 [8]): 9.37 nM | koff [9]: 0.00098 s⁻¹ | Kd [10]: 16.7 nM | kon [10]: 58500 M⁻¹ s⁻¹ | Kd (human CD40 [11]): 3 nM | kon (human CD40 [11]): 30600 M⁻¹ s⁻¹ | koff [12]: 0.000803 s⁻¹ | koff (human CD40 [13]): 0.000733 s⁻¹ | Kd [14]: 7.07 nM | kon [14]: 114000 M⁻¹ s⁻¹ | koff (human CD40 [15]): 0.00103 s⁻¹ | Kd (human CD40 [16]): 9.46 nM | kon (human CD40 [16]): 59400 M⁻¹ s⁻¹ | Kd (murine CD40 [17]): 8.92 nM | kon (murine CD40 [17]): 33700 M⁻¹ s⁻¹ | koff (murine CD40 [18]): 0.000295 s⁻¹ | Kd (human galectin-9 (human) [19]): 69 nM | EC50 (read off the curve) (mIgG Fc gamma [20]): 4 nM | koff (murine CD40 [21]): 0.00286 s⁻¹ | koff (human galectin-9 (human) [22]): 0.00108 s⁻¹

mouse IgG (antibody)
EC50 (read off the curve) (mIgG Fc gamma [23]): 2 nM

B1: mCD40L-Fc fusion protein (Fc fusion, murine, UniProt P27548 112-260, looked up)
chain: MQRGDEDPQIAAHVVSEANSNAASVLQWAKKGYYTMKSNLVMLENGKQLTVKREGLYYVYTQVTFCSNREPSSQRPFIVGLWLKPSSGSERILLKAANTHSSSQLCEQQSVHLGGVFELQAGASVFVNVTEASQVIHRVGFSSFGLLKL
notes: also called recombinant mCD40L-Fc protein; not shown: Fc part
koff (murine CD40 [24]): 0.00114 s⁻¹ | kon (murine CD40 [25]): 118000 M⁻¹ s⁻¹ | Kd (human CD40 [26]): 4.8 nM | kon (human CD40 [26]): 220000 M⁻¹ s⁻¹ | Kd (murine CD40 [27]): 14.1 nM | kon (murine CD40 [27]): 81500 M⁻¹ s⁻¹ | koff (human CD40 [28]): 0.00115 s⁻¹
